This note sets out measurements from publication doi:10.1101/2020.10.22.351346.

Experiment [1] has as its target microtubules of pig brain tubulin, taxol-stabilised, surface-immobilised (pig) (UniProt P02550).
The target is the same in experiment [2]. The experiment in a line: TIRF fluorescence imaging of labelled MAP on surface-immobilised MTs.

Chain of full-length human MAP7 (Q14244 whole entry): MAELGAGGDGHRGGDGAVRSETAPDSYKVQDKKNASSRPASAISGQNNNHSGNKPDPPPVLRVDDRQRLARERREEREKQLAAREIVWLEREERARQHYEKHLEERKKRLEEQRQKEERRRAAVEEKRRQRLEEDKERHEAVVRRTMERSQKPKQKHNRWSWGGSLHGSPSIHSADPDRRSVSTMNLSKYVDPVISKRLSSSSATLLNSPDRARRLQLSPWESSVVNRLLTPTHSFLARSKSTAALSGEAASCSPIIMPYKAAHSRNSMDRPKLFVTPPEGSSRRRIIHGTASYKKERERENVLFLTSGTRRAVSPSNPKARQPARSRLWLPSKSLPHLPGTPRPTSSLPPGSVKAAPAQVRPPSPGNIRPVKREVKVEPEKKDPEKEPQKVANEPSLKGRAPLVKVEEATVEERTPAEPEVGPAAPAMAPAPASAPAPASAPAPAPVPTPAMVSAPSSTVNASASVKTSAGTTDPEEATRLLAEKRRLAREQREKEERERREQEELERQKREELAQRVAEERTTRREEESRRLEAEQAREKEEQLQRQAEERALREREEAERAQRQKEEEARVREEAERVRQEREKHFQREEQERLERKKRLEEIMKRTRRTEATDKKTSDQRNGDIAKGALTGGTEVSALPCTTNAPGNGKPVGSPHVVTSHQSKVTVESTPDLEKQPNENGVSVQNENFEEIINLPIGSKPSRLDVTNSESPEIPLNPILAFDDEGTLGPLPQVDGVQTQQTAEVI
Chain of MAP7-N (amino acids 1-316) (Q14244 1-316): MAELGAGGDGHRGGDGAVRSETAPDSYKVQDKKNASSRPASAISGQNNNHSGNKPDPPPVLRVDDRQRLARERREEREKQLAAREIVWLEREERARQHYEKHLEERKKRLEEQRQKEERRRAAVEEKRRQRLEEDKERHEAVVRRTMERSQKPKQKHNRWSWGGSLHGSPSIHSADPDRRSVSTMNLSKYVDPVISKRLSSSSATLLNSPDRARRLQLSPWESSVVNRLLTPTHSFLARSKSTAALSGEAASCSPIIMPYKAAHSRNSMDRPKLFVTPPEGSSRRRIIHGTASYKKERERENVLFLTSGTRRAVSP
Chain of Tau-MTBD (amino acids 242-367) (P10636 559-684): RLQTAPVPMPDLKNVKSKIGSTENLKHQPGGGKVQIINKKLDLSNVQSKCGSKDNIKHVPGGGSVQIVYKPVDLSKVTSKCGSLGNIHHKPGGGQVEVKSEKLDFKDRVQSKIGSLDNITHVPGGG

In experiment [1], “MAP7-N (amino acids 1-316) (from UniProt Q14244-1 1-316) (domain or fragment)” registered an IC50 of the run frequency of K560 on MTs against the concentration of MAP7-N of 17.6 nM.
Consider “Tau-MTBD (amino acids 242-367) (from UniProt P10636-8 242-367) (domain or fragment)”, for which, in experiment [2], the fold lower affinity than FL tau was 100 fold.
Regarding “full-length human MAP7 (from UniProt Q14244-1 1-749) (natural protein)”, in experiment [2], the IC50 (commonly the concentration that gives 50% inhibition) turned out to be 270 nM and the Kd (commonly the free concentration of one partner at which half of the binding sites on the other are occupied at equilibrium, for simple one-to-one binding) turned out to be 111 nM.
